In patent US20090298755A1 (NEW ENGLAND MEDICAL CENTER HOSPITALS, published 2009):
Ends that are not written are not given here.

How the values were obtained:
[1] = molecular target: T1, NK1 receptor (rat brain) (rat, UniProt P14600 1-407); assay: radioligand competition, [125I]BH-SP on crude rat brain plasma membranes, room temperature, 75 min, filtration
T1 construct: whole, on cells; Native receptor in crude rat brain plasma membrane homogenate, not on intact cells; also called SP receptor
Description: For binding assays to opioid receptors, frozen rat brains (−80° C.) were homogenized in 40 volumes of standard Tris buffer (50 mM Tris HCl (pH 7.4), 0.2 mg/ml BSA, 2.5 mM EDTA, 40 μg/m bacitracin, 30 μg/ml bestatin and 5 mM MgCl₂) and centrifuged at 15,000×g for 20 minutes. 100 mM NaCl was added to the buffer, in order to remove endogenous ligands, and the centrifugation was repeated. After a wash with standard buffer, the membrane preparation was finally resuspended in 10 volumes of incubation buffer (standard buffer with 4 μg/ml leupeptin and 2 μg/ml chymostatin). […] The brain homogenates were used on the day of preparation.
After filtration, the radioactivity was determined on a gamma-counter.

[2] = molecular target: T2, µ receptor (rat brain) (rat, UniProt P33535 1-398); assay: radioligand competition, [3H]DAMGO on crude rat brain plasma membranes, 4 C, 90 min, filtration
T2 construct: whole, on cells; Native receptor in crude rat brain plasma membrane homogenate, not on intact cells; also called µ opioid receptor; opioid receptor
T2 sequence (P33535 whole entry): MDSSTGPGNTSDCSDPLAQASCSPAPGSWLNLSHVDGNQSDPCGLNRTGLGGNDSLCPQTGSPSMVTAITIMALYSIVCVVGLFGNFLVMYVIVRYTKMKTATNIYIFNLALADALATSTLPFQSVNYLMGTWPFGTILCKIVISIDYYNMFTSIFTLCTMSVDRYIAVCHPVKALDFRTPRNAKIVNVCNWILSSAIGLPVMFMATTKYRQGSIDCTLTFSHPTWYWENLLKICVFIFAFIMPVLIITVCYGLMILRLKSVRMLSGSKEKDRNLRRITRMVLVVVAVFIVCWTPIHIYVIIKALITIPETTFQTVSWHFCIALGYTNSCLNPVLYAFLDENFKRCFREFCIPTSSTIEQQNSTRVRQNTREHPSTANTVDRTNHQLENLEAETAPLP

T1 sequence (P14600 whole entry): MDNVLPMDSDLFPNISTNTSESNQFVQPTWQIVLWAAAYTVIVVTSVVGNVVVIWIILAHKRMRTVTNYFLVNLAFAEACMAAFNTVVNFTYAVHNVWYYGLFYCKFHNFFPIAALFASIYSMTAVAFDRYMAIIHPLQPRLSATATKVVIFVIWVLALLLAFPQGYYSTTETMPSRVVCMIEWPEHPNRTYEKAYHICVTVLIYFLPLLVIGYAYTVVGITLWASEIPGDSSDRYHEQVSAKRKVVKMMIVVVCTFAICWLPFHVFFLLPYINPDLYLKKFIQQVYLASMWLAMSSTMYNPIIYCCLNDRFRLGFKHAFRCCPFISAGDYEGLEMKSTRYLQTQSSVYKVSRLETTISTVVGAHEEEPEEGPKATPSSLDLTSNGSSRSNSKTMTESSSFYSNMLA

Kd [1]: ~200 nM | Kd [2]: ~300 nM
B1: ESP7 (peptide)
peptide: YPFFGLM-NH2
notes: Chimera of endomorphin-2 at the N-terminus and SP(7-11) at the C-terminus; also called chimeric peptide ESP7; Tyr-Pro-Phe-Phe-Gly-Leu-Met-NH2
